No end group written: not given here.

This assay addresses T1, conjugate of a peptide consisting of an amino acid sequence represented by SEQ ID NO: 1 and KLH (also: conjugated to KLH with glutaraldehyde, attachment site not given here).
T1 construct: Synthetic peptide (Fmoc solid phase) chemically conjugated to KLH; used as the immunogen and as the coating antigen in the antibody titer ELISA; also called antigenic substance; not shown: KLH carrier protein (SIGMA), coupled by glutaraldehyde
T1 peptide: SSVLYGGPPSAA
In words: antibody titer ELISA, plate coated with the peptide-KLH conjugate, hybridoma culture supernatant, fluorescence read-out. The procedure: A buffer solution containing the above-mentioned antigenic substance (5 mg) (Baicarbonate buffer: 100 mM NaHCO₃—NaOH, pH 9.2 to 9.5, the concentration of the peptide: 1 μg/mL) was added to a 96 well flat bottom plate in an amount of 50 μL per well, and allowed to stand for coating at room temperature for 2 hours. The plate was washed 3 times with wash buffer (PBST), and then blocking buffer (3% skim milk 1% BSA, PBS) was added in an amount of 200 to 250 μL/well to react at 4° C. for one full day, and then washed 3 times. Then the culture supernatant of hybridoma was added in an amount of 100 μL/well, which was allowed to react at 37° C. for 4 hours or at 4° C. for one full day. After the plate was washed 3 times, biotin-labeled anti-mouse IgG (SIGMA) diluted 10000 times with dilution buffer (10 mM Tris-HCl (pH 8.0), 0.9% (W/V) NaCl, 0.05% (W/V) Tween 20) was added in an amount of 50 μL/well, which was allowed to react at room temperature for 2 hours. […] Then washing was performed 6 times, and fluorescent substrate buffer (Attophos substrate buffer, Roche Diagnostics K.K.) was added in an amount of 50 μL/well, and the plate was shaded to allow fluorescence to develop. Fluorescence intensity was measured in CytoFluorII (PerSeptive Biosystems).
In general terms: An ELISA detects its analyte on a solid surface through an enzyme-linked reagent.

B1: monoclonal antibody (SSVmAb) of Example 1, produced by Mouse-Mouse hybridoma SSV-C 93-3 (antibody, IgG1, V domains shown)
VH: EIQLQQSGAELVKPGASVKISCKASGYSFTGYNMNWVKQSHGKSLEWIGNINPYYGSTSYNQKFKGKATLTVDKSSSTAYMQLNSLTSEDSAVYYCARSPYYSNYWRYFDYWGQGTTLTVSS
VL: QIVLSQSPAILSASPGEKVTMTCRASSSVSYMHWYQQKPGSSPKPWIYATSNLASGVPARFSGSGSGTSYSLTISRVEAEDAATYYCQQWSSNPWTFGGGTKLEIK
notes: Mouse monoclonal antibody purified from hybridoma culture supernatant; light chain amplified with a mouse kappa constant region primer
B1: the binding result is reported as “binds”.

Source of the values: US20140010815A1 (JOSAI UNIVERSITY, published 2014).
